According to article PMC10151520, “TapA acts as specific chaperone in TasA filament formation by strand complementation” (Proceedings of the National Academy of Sciences of the …, 2023):

What was measured:
[1] = biological target: the molecule itself; test: SEC; gel filtration of TapA constructs, without DTT
[2] = biological target: T1, TasA (mature protein, residues 28 to 261) (Bacillus subtilis, UniProt P54507 28-261); test: AUC; sedimentation velocity of mixtures: 100 µM TasA with TapA (100, 70, 10, 4, 2 or 1 µM), TapA variants (100 µM) or 250 µM peptide; 20 °C, 20 mM Na phosphate pH 7.0, 150 mM NaCl, 40,000 rpm, runs of 17 h; details: both partners purified
T1 construct: Used unlabelled or isotope-labelled (2H,13C,15N; 2H,15N; [2-13C]-glycerol) according to the experiment; also called translocation-dependent antimicrobial spore component; source: monomer separated by gel filtration
T1 sequence (looked up): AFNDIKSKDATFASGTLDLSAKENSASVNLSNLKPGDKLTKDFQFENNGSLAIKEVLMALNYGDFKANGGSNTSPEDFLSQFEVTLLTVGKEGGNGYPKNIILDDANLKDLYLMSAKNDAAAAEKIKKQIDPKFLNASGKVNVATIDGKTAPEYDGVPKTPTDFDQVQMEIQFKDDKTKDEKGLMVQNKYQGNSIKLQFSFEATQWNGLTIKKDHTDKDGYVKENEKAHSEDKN

[3] = biological target: the molecule itself; test: time course of 1H solution NMR signals of the monomer; one-dimensional 1H spectra over time after mixing; TasA at 125 or 250 µM with TapA or TapA variants (e.g. 5:1); legend: 20 °C, pH 7, 150 mM NaCl
[4] = biological target: T2, TasA (mature protein, residues 28 to 261) (Bacillus subtilis (strain 168), UniProt P54507); test: AUC (sedimentation velocity); 150 mM NaCl at pH 7 (no ITC response at 50 mM NaCl, pH 7); TapA-induced TasA oligomerization
T2 chain: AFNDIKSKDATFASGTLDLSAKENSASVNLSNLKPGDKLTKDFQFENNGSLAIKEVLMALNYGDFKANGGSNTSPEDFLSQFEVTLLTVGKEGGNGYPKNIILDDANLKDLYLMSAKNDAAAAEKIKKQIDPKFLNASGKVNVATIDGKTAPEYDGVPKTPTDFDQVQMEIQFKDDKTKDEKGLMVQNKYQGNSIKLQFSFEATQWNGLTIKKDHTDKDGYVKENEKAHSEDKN

B1: TapA_(60-190) (domain or fragment, B. subtilis 168, UniProt P40949 60-190, looked up)
chain: DFQHTDKNCHYDKRWDQSDLHISDQTDTKGTVCSPFALFAVLENTGEKLKKSKWKWELHKLENARKPLKDGNVIEKGFVSNQIGDSLYKIETKKKMKPGIYAFKVYKPAGYPANGSTFEWSEPMRLAKCDE
notes: TapA of Bacillus subtilis 168, residues 60 to 190; Odd number of cysteines (free C68)
- stoichiometry N [1]: 2

B2: TapA_(66-190) (domain or fragment, B. subtilis 168, UniProt P40949 66-190, looked up)
chain: KNCHYDKRWDQSDLHISDQTDTKGTVCSPFALFAVLENTGEKLKKSKWKWELHKLENARKPLKDGNVIEKGFVSNQIGDSLYKIETKKKMKPGIYAFKVYKPAGYPANGSTFEWSEPMRLAKCDE
notes: TapA of Bacillus subtilis 168, residues 66 to 190; Odd number of cysteines (free C68)
- stoichiometry N [1]: 2

B3: TapA_(44-190) (domain or fragment, B. subtilis 168, UniProt P40949 44-190, looked up)
chain: AFHDIETFDVSLQTCKDFQHTDKNCHYDKRWDQSDLHISDQTDTKGTVCSPFALFAVLENTGEKLKKSKWKWELHKLENARKPLKDGNVIEKGFVSNQIGDSLYKIETKKKMKPGIYAFKVYKPAGYPANGSTFEWSEPMRLAKCDE
notes: also called TapA without residues beyond E190; variant with deleted C terminus
- binding result [2]: binds

B4: TasA_(28-239) (domain or fragment, Bacillus subtilis, UniProt P54507 28-239, looked up)
chain: AFNDIKSKDATFASGTLDLSAKENSASVNLSNLKPGDKLTKDFQFENNGSLAIKEVLMALNYGDFKANGGSNTSPEDFLSQFEVTLLTVGKEGGNGYPKNIILDDANLKDLYLMSAKNDAAAAEKIKKQIDPKFLNASGKVNVATIDGKTAPEYDGVPKTPTDFDQVQMEIQFKDDKTKDEKGLMVQNKYQGNSIKLQFSFEATQWNGLTIK
- binding result [3]: binds

B5: TapA (mature protein, residues 44 to 253) (protein)
chain: AFHDIETFDVSLQTCKDFQHTDKNCHYDKRWDQSDLHISDQTDTKGTVCSPFALFAVLENTGEKLKKSKWKWELHKLENARKPLKDGNVIEKGFVSNQIGDSLYKIETKKKMKPGIYAFKVYKPAGYPANGSTFEWSEPMRLAKCDEKPTVPKKETKSDVKKENETTQKDIPEKTMKEETSQEAVTKEKETQSDQKESGEEDEKSNEADQ
- binding result [4]: binds
